Data set [1] deals with T1, RNase H1 D252N (Drosophila melanogaster, UniProt A1Z769 17-333, D252N).
T1 sequence: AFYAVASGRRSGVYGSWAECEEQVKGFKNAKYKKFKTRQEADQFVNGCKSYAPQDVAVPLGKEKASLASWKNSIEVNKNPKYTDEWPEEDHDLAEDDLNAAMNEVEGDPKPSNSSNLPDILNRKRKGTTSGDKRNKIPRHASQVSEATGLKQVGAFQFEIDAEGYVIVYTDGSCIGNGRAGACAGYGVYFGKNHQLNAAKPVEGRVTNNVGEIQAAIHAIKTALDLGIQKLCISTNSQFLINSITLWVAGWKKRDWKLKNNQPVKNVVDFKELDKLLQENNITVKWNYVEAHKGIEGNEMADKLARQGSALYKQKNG
The data set is described as follows: EMSA; second shift at high protein; BLI: 30 mM Tris-HCl pH 8.0, 100 mM KCl, 10% glycerol, 10 mM EDTA, 2 mM DTT, 400 ug/ml BSA, 30 C; EMSA: 25 mM Tris-HCl pH 8.0, 25 mM KCl, 1 mM DTT, 10 mM EDTA, 20 ug/ml BSA, room temperature, 30 min. The conditions noted are these: protein: recombinant; tags: C-terminal 6xHis (+2 vector residues); blunt.

The target in data set [2] is T2, RNase H1 ΔIII-V (Drosophila melanogaster, UniProt A1Z769 17-87).
T2 sequence: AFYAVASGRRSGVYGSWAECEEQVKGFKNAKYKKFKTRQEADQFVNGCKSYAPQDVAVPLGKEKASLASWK
The data set is described as follows: EMSA; supershift at high protein; BLI: 30 mM Tris-HCl pH 8.0, 100 mM KCl, 10% glycerol, 10 mM EDTA, 2 mM DTT, 400 ug/ml BSA, 30 C; EMSA: 25 mM Tris-HCl pH 8.0, 25 mM KCl, 1 mM DTT, 10 mM EDTA, 20 ug/ml BSA, room temperature, 30 min. The conditions noted are these: protein: recombinant; tags: C-terminal 6xHis; blunt. For orientation: In EMSA bound probe runs differently from free probe, usually more slowly.

Data set [3] deals with T3, RNase H1 ΔIV/V (Drosophila melanogaster, UniProt A1Z769 17-142).
T3 sequence: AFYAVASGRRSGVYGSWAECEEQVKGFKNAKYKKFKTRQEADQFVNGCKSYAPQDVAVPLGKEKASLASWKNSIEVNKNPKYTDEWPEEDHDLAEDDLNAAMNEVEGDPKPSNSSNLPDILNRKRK
Described as above. The conditions noted are these: protein: recombinant; tags: C-terminal 6xHis; blunt.

Data set [4] concerns the target T4, RNase H1 ΔII-V (Drosophila melanogaster, UniProt A1Z769 17-65).
T4 chain: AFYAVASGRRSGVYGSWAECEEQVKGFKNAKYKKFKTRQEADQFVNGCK
The description is as above. The note with it: protein: recombinant; tags: C-terminal 6xHis; blunt.

The target of data set [5] is T5, RNase H1 ΔII/III D252N (Drosophila melanogaster, UniProt A1Z769 17-333, D252N;del66-141).
T5 sequence: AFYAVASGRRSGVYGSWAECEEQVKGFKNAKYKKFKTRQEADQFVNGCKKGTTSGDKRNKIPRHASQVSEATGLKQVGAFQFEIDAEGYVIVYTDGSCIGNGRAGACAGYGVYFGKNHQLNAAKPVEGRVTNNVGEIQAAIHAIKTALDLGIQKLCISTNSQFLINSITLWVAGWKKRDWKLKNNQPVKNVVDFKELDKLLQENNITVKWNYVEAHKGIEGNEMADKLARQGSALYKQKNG
The data set is described as follows: EMSA; BLI: 30 mM Tris-HCl pH 8.0, 100 mM KCl, 10% glycerol, 10 mM EDTA, 2 mM DTT, 400 ug/ml BSA, 30 C; EMSA: 25 mM Tris-HCl pH 8.0, 25 mM KCl, 1 mM DTT, 10 mM EDTA, 20 ug/ml BSA, room temperature, 30 min. The note with it: protein: recombinant, tags: C-terminal 6xHis, blunt.

Data set [6] has as its target T6, RNase H1 ΔI-III D252N (Drosophila melanogaster, UniProt A1Z769 142-333, D252N).
T6 sequence: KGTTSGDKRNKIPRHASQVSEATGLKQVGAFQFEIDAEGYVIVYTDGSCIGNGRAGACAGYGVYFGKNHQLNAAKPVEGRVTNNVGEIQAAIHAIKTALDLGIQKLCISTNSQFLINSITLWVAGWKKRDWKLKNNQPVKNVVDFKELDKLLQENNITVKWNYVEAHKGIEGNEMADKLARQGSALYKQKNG
The data set is described as follows: EMSA; no supershift; BLI: 30 mM Tris-HCl pH 8.0, 100 mM KCl, 10% glycerol, 10 mM EDTA, 2 mM DTT, 400 ug/ml BSA, 30 C; EMSA: 25 mM Tris-HCl pH 8.0, 25 mM KCl, 1 mM DTT, 10 mM EDTA, 20 ug/ml BSA, room temperature, 30 min. The note with it: protein: recombinant; tags: C-terminal 6xHis; blunt.

Data set [7] addresses T7, RNase H1 ΔI/II D252N (Drosophila melanogaster, UniProt A1Z769 87-333, D252N).
T7 sequence: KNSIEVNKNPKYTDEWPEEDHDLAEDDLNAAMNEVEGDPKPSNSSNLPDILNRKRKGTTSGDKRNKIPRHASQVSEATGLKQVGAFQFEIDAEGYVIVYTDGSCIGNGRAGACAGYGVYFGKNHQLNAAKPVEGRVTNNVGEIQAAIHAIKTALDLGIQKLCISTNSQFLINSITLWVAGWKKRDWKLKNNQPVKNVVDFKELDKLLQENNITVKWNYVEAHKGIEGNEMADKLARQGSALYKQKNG
The description is as above. The note with it: protein: recombinant; tags: C-terminal 6xHis; blunt.

The target in data set [8] is T2, RNase H1 ΔIII-V. The data set is described as follows: BLI; BLI: 30 mM Tris-HCl pH 8.0, 100 mM KCl, 10% glycerol, 10 mM EDTA, 2 mM DTT, 400 ug/ml BSA, 30 C; EMSA: 25 mM Tris-HCl pH 8.0, 25 mM KCl, 1 mM DTT, 10 mM EDTA, 20 ug/ml BSA, room temperature, 30 min. The conditions noted are these: protein: recombinant, tags: C-terminal 6xHis, blunt.
Data set [9] concerns the target T3, RNase H1 ΔIV/V. Described as above. The note with it: protein: recombinant, tags: C-terminal 6xHis, blunt.
The target in data set [10] is T4, RNase H1 ΔII-V. The data set is described as above. The conditions noted are these: protein: recombinant, tags: C-terminal 6xHis, blunt.
The target of data set [11] is T1, RNase H1 D252N. The data set is described as follows: EMSA; BLI: 30 mM Tris-HCl pH 8.0, 100 mM KCl, 10% glycerol, 10 mM EDTA, 2 mM DTT, 400 ug/ml BSA, 30 C; EMSA: 25 mM Tris-HCl pH 8.0, 25 mM KCl, 1 mM DTT, 10 mM EDTA, 20 ug/ml BSA, room temperature, 30 min. The conditions noted are these: protein: recombinant, tags: C-terminal 6xHis (+2 vector residues), blunt.
In data set [12] the target is Dm RNase H1 (amino acids 17-333), bacterially expressed (Drosophila melanogaster).
Data set [13] has as its target T1, RNase H1 D252N. The data set is described as follows: EMSA; 1 or 10 uM protein; BLI: 30 mM Tris-HCl pH 8.0, 100 mM KCl, 10% glycerol, 10 mM EDTA, 2 mM DTT, 400 ug/ml BSA, 30 C; EMSA: 25 mM Tris-HCl pH 8.0, 25 mM KCl, 1 mM DTT, 10 mM EDTA, 20 ug/ml BSA, room temperature, 30 min. The note with it: protein: recombinant; tags: C-terminal 6xHis (+2 vector residues); label: 5' 32P; single strand.

B1: 30-bp RNA/DNA hybrid (EMSA) (DNA:RNA)
RNA: CGCGAAGACUAACUAUAGCGUGCCCUACUU
DNA: AAGTAGGGCACGCTATAGTTAGTCTTCGCG
Turning to B1, the binding result in [1], in [2], in data set [3], in [4], in data set [5] and in [6] was “binds” throughout. In addition, in data set [7], the binding result is recorded as “binds”.

B2: 30-bp dsDNA (dsDNA)
DNA 1: AAGTAGGGCACGCTATAGTTAGTCTTCGCG
DNA 2: CGCGAAGACTAACTATAGCGTGCCCTACTT
With B2, the binding result is “no binding” in data set [8] (label: 5' biotin on S3 for BLI); “no binding” in data set [9] (label: 5' biotin on S3 for BLI); “no binding” in data set [10] (label: 5' biotin on S3 for BLI); “binds” in data set [5] (label: 5' biotin on S3 for BLI); “binds” in [11] (label: 5' biotin on S3 for BLI).

B3: 30-bp dsRNA (dsRNA)
RNA 1: AAGUAGGGCACGCUAUAGUUAGUCUUCGCG
RNA 2: CGCGAAGACUAACUAUAGCGUGCCCUACUU
In the case of B3, the binding result in [8] (label: 5' biotin on S2 for BLI) is reported as “no binding”; in [9] (label: 5' biotin on S2 for BLI), “no binding”; in data set [10] (label: 5' biotin on S2 for BLI) it was “no binding”; in [5] (label: 5' biotin on S2 for BLI), “binds”; in [11] (label: 5' biotin on S2 for BLI), “binds”.

B4: Drosophila mitochondrial single-stranded DNA-binding protein, purified (natural protein)
chain: ATTTTAAAPAKVEKTVNTVTILGRVGADPQLRGSQEHPVVTFSVATHTNYKYENGDWAQRTDWHRVVVFKPNLRDTVLEYLKKGQRTMVQGKITYGEITDQQGNQKTSTSIIADDVLFFRDANN
For the molecule B4, the nuclease activity of 0.1 nM Dm RNase H1 on radiolabelled 30-bp RNA/DNA hybrid pre-incubated with mtSSB (0-500 nM), without ssDNA; densitometry in data set [12] amounted to 55%.

B5: 30-nt ssDNA (ssDNA)
DNA: AAGTAGGGCACGCTATAGTTAGTCTTCGCG
As for B5, the binding result in data set [13] was “no binding”.

B6: 30-nt ssRNA (ssRNA)
RNA: CGCGAAGACUAACUAUAGCGUGCCCUACUU
Consider B6, for which the binding result in data set [13] was “no binding”.

The record behind these values is PMC7657459, “A second hybrid-binding domain modulates the activity of Drosophila ribonuclease H1”.
